Here are results for one molecule from patent publication US12605469B2, “Tumor specific antibody conjugates and uses therefor” (The University of North Carolina at Charlotte, priority 2019, dated 2026).

In this assay the target is T1, human MUC1, tumor-associated form (tMUC), on tumor cells and tumor tissue (human, UniProt P15941 24-1255, tumor-associated (aberrant) glycosylation, not specified further).
T1 construct: also called tMUC1; tumor-associated glycosylated MUC1
Description: fluorescence microscopy of CAR T cells co-incubated with HPAFII cells.

T1 sequence (P15941 other isoform, or with tags, fused parts or gaps limits assumed): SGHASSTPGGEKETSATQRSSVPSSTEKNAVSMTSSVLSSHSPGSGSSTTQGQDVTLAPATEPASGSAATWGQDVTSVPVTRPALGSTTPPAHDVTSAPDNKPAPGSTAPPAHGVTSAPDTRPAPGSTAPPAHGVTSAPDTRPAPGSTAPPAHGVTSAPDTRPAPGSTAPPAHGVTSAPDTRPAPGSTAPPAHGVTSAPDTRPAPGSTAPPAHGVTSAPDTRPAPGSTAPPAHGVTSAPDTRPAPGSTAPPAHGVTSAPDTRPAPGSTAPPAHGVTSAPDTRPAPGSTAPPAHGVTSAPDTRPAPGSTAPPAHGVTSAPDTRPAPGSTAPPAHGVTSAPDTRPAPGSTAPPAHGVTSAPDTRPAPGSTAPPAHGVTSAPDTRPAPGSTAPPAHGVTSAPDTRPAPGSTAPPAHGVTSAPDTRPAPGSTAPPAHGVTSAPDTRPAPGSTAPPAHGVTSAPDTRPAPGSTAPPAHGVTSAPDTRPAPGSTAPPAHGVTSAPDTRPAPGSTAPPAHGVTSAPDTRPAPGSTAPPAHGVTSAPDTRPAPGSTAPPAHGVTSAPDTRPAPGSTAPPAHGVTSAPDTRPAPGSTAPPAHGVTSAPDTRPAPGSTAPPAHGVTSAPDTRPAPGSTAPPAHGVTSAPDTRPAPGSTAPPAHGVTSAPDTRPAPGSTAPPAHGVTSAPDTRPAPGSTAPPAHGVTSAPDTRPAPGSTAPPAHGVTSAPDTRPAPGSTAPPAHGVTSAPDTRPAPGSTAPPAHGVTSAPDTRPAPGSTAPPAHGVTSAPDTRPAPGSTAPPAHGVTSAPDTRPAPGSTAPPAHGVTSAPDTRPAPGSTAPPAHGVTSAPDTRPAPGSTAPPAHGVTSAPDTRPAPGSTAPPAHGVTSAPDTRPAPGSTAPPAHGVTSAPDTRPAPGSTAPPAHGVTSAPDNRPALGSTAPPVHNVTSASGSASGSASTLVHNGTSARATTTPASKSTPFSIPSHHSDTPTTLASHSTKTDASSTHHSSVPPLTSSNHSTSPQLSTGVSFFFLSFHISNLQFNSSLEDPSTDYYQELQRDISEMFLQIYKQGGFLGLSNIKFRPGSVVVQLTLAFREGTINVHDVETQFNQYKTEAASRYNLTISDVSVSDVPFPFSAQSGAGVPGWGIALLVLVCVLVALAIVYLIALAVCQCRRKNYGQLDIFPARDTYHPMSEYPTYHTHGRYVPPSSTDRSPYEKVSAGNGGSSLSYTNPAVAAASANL

B1: TAB-28z-mKATE chimeric antigen receptor (2nd generation), on T cells (receptor)
chain: EVQLQQSGGERATPGASVKMSCKTSGYTFTNYWMHWVKQRPGQGLEWIGYINPSSGYTQYNQKFKDKATLTADKSSSTAYIQLSSLTSEDSAVYYCSTYYGDYLFPYWGQGTLVTVSAGGGGSGGGGSGGGGSDVLMTQTPLSLPVSLGDQASISCRSSQDIVYGNGNTYLEWYLQKPGQSPKLLIYKVSNRFSGVPDRFSGSGSGTDFTLKISRVEAEDLGVYYCFQGSHVPYTFGGGTKLEIKRAAAIEVEQKLISEEDLLDNEKSNGTIIHVKGKHLCPSPLFPGPSKPFWVLVVVGGVLACYSLLVTVAFIIFWVRSKRSRLLHSDYMNMTPRRPGPTRKHYQPYAPPRDFAAYRSRVKFSRSADAPAYQQGQNQLYNELNLGRREEYDVLDKRRGRDPEMGGKPRRKNPQEGLYNELQKDKMAEAYSEIGMKGERRRGKGHDGLYQGLSTATKDTYDALHMQALPPRARGAAAGAGGAGRMVSELIKENMHMKLYMEGTVNNHHFKCTSEGEGKPYEGTQTMRIKAVEGGPLPFAFDILATSFMYGSKTFINHTQGIPDFFKQSFPEGFTWERVTTYEDGGVLTATQDTSLQDGCLIYNVKIRGVNFPSNGPVMQKKTLGWEASTETLYPADGGLEGRADMALKLVGGGHLICNLKTTYRSKKPAKNLKMPGVYYVDRRLERIKEADKETYVEQHEVAVARYCDLPSKLGHR
notes: Expressed on the surface of T cells or Jurkat cells; also called CAR-mKATE; CAR-mKate fusion protein
B1: the binding result is “binds”.
